From publication PMC4809669 (Biochemistry, 2016)
Changes are numbered by the printed parent chain. Names and notes keep the numbering of the source.

B1: hASRGL1-C202A (enzyme, human, UniProt Q7L266 1-308, looked up)
chain: MNPIVVVHGGGAGPISKDRKERVHQGMVRAATVGYGILREGGSAVDAVEGAVVALEDDPEFNAGCGSVLNTNGEVEMDASIMDGKDLSAGAVSAVQCIANPIKLARLVMEKTPHCFLTDQGAAQFAAAMGVPEIPGEKLVTERNKKRLEKEKHEKGAQKTDCQKNLGTVGAVALDCKGNVAYATSTGGIVNKMVGRVGDSPALGAGGYADNDIGAVSTTGHGESILKVNLARLTLFHIEQGKTVEEAADLSLGYMKSRVKGLGGLIVVSKTGDWVAKWTSTSMPWAAAKDGKLHFGIDPDDTTITDLP
B2: hASRGL1-C202S (enzyme, human, UniProt Q7L266 1-308, looked up)
chain: B1 chain with A202S

Biological target: the molecule itself
Assay: SEC

Row | Protein | stoichiometry N
1 | B1 | 2
2 | B2 | 2
